Results reported in the supplement of paper PMC11136658.

Tested on: peptide library, one residue held at a place counted from the Y acceptor
Assay: relative phosphorylation of the sub-library (ratio to the mean residue at this position); higher = residue favoured
Procedure, shortened: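 Peptide library mixtures, biotinylated and centred on Tyr, each fixed one residue at one position from −5 to +5. Purified recombinant kinases were incubated with them for 90 min in 384-well plates alongside 50 μM ATP and γ-32P-ATP, and the captured, rinsed peptides on streptavidin membranes were measured by phosphorimaging and ImageQuant. Normalization divided each position's intensities by the sum of its 18 randomized residues (16 for the Ser/Thr-free library) and multiplied by that number, so that values give phosphorylation relative to the mean randomized residue.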

Sequence of SRMS, construct: aa221-486, human (Q9H3Y6 221-486, looked up): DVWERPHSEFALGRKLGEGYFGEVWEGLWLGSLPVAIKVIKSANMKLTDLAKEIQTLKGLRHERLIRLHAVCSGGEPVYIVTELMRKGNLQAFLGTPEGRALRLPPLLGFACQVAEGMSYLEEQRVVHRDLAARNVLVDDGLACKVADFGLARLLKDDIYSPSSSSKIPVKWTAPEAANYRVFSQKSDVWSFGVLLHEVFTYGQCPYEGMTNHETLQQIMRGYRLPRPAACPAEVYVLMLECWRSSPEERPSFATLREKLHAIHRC

SRMS, construct: aa221-486, human (from UniProt Q9H3Y6)
relative phosphorylation
Conditions	A fixed	D fixed	E fixed	F fixed	G fixed	H fixed	I fixed	K fixed	L fixed	M fixed
at +1	1.61	1.27	2.77	0.567	0.832	0.66	1.26	0.273	0.788	1.12
at +2	0.852	1.37	1.87	0.976	0.583	0.783	1.07	0.451	1.07	1.01
at +3	0.745	0.647	0.602	1.42	0.964	0.837	2.19	0.291	1.56	1.31
at +4	0.969	1.09	1.41	0.922	1.15	1.11	0.812	0.736	0.795	1.13
at +5	1.04	1.1	1.23	0.996	1.18	0.897	0.864	0.714	0.92	1.02
at -1	0.678	0.76	0.764	1.49	0.296	1.13	2.65	0.317	1.98	1.2
at -2	1.08	1.3	1.61	0.718	1.01	0.924	0.963	0.605	0.921	0.837
at -3	0.923	1.33	1.88	1.05	1.07	0.961	0.778	0.62	0.839	1.03
at -4	1.13	1.22	1.18	1.1	1.08	0.842	0.816	0.767	1.03	0.991
at -5	1.02	1.14	1.07	1.01	1.18	0.87	0.921	0.91	0.919	0.995
